Values of other authors, collected in article doi:10.1101/2020.02.03.932012.

Assays:
Test in all cases: stability
Settings in all cases: single buried-residue variants, ligand-free as far as stated
[1] = biological target: Glu66 (UniProt position 148, FTKKMEENAKK)
[2] = biological target: Lys66 (UniProt position 148, FTKKMKENAKK)
[3] = biological target: Lys62 (UniProt position 144, EASAFKKKMVE)
[4] = biological target: Glu62 (UniProt position 144, EASAFEKKMVE)

For “Staphylococcal nuclease Delta+PHS V66E (Staphylococcus aureus; G50F;V51N;P117G;H124L;S128A;del44-49;V66E)”, the pKa [1] is listed as 8.5.

For “Staphylococcal nuclease Delta+PHS V66K (Staphylococcus aureus; G50F;V51N;P117G;H124L;S128A;del44-49;V66K)”, the pKa [2] is listed as 5.7.

In the case of “Staphylococcal nuclease Delta+PHS T62K (Staphylococcus aureus; G50F;V51N;P117G;H124L;S128A;del44-49;T62K)”, the pKa [3] is given as 8.1.

In the case of “Staphylococcal nuclease Delta+PHS T62E (Staphylococcus aureus; G50F;V51N;P117G;H124L;S128A;del44-49;T62E)”, the pKa [4] is given as 7.7.
